Test results from paper PMC9873573, “Cryo-EM structure of the respiratory I + III2 supercomplex from Arabidopsis thaliana at 2 Å resolution” (Nature Plants, 2022).
Values belong to the molecule of their own block, whether it stands above or below them.

B1: complex I subunit B14.7 (natural protein, UniProt O48528 1-159, looked up)
chain: MDPAEMRYLEEEDGPLMKTIKGSITGFGAGTIYGTILATWKDVPRVERNVALPGLIRTLKMMGTHGLTFAAIGGVYIGVEQLVQNFRSKRDFYNGAIGGFVAGASVLGYRARSIPTAIAAGATLAVTSALIDSGGQTTRVDNGREYYPYTVEKRAEADS
notes: subunit B14.7 of Arabidopsis thaliana mitochondrial complex I (membrane arm); absent from the earlier structures of free plant complex I; also called B14.7 kDa subunit

Legend:
[1] = target: T1, complex I, FMN / NADH site (51 kDa subunit), in the I + III2 supercomplex (Arabidopsis thaliana, UniProt Q9FNN5); experiment: cryo-EM structure, […] Å; format: binding; settings: co-purified
T1 construct: gene At5g08530; native supercomplex; tested as whole I + III2 assembly of 68 subunits
T1 sequence (Q9FNN5 31-486): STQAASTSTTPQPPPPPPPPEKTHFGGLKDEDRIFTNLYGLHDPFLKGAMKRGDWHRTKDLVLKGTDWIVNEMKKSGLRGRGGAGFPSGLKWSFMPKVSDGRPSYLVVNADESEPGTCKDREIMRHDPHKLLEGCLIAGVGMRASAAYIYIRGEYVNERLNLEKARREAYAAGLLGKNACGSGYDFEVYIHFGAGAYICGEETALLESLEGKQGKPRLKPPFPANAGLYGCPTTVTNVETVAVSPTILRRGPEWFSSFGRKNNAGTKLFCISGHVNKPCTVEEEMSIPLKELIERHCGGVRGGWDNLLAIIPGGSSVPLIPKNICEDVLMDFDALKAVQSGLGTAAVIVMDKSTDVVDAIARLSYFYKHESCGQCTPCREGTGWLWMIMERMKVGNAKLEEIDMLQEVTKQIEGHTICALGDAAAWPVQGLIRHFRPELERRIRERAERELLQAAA

[2] = target: T2, complex I core subunit ND5 (Arabidopsis thaliana (endogenous in …, UniProt P29388 1-669)); experiment: cryo-EM structure; native I + III2 supercomplex isolated from digitonin-solubilised Arabidopsis mitochondria (sucrose gradient, Superose 6 in GDN); 30 mM Tris-HCl pH 7.4, 60 mM NaCl, 0.02% GDN; 2.36 Å for the whole supercomplex, 2.03 Å after multibody refinement, 1.9 Å after density modification; settings: both partners purified
T2 sequence (looked up): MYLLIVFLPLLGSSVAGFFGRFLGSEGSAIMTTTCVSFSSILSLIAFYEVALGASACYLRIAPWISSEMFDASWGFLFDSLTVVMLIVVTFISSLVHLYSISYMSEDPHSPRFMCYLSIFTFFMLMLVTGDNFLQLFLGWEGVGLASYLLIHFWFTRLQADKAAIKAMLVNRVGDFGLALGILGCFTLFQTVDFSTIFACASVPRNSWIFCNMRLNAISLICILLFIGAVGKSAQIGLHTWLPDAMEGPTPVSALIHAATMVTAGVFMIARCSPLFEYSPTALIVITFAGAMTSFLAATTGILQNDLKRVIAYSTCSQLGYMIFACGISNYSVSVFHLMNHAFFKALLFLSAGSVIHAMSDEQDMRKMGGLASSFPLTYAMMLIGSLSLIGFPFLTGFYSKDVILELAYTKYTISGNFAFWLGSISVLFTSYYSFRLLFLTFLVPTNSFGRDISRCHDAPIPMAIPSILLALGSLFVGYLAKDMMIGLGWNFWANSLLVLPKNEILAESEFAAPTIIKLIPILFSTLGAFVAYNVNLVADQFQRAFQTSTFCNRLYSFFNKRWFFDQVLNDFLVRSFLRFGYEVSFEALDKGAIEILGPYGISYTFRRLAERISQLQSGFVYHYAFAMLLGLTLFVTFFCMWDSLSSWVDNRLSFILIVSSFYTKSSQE

complex I subunit B14.7 = target: B1; experiment: as above; settings: both partners purified
[3] = target: T3, mitochondrial processing peptidase subunit MPP-α-1 of complex III (Arabidopsis thaliana (endogenous in …, UniProt Q9ZU25 60-503)); experiment: as above; settings: both partners purified
T3 construct: MPP-α, isoform 1 (the dominant isoform, fitted to the map), subunit of Arabidopsis thaliana complex III
T3 sequence (looked up): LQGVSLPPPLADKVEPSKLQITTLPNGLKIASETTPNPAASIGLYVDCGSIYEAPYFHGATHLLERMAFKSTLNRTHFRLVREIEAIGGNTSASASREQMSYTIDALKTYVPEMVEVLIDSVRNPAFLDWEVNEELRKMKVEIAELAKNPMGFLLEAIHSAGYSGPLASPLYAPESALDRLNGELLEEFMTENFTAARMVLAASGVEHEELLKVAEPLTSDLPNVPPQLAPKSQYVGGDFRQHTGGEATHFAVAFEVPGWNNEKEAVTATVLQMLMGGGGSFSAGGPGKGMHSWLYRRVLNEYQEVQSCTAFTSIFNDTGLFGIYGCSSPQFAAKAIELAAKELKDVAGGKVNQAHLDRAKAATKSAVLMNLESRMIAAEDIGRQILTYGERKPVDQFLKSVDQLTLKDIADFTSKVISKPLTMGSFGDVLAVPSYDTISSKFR

[4] = target: T4, mitochondrial processing peptidase subunit MPP-β of complex III (Arabidopsis thaliana (endogenous in …, UniProt Q42290 79-531)); experiment: as above; settings: both partners purified
T4 construct: MPP-β, subunit of Arabidopsis thaliana complex III
T4 sequence (looked up): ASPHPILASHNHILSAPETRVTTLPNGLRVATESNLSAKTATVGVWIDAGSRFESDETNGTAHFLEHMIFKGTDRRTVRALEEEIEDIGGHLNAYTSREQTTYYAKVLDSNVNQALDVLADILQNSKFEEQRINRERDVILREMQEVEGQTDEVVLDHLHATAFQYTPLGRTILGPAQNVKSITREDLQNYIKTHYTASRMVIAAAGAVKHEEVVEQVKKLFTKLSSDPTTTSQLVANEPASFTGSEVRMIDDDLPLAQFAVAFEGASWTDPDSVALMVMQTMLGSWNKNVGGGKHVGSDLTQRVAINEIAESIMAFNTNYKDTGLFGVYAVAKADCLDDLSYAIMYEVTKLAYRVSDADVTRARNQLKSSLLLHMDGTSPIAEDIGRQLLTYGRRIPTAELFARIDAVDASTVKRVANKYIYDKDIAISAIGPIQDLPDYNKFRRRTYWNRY

Molecule: Cc1cc2nc3c(=O)[nH]c(=O)nc-3n(C[C@H](O)[C@H](O)[C@H](O)COP(=O)(O)O)c2cc1C [FMN]
- cryo-EM structure, 2 Å [1]: Complex I: FMN (Flavin mononucleotide), N1a, N1b, N2, N3

Molecule: B1
- binding result [2]: binds

B2: complex III subunit QCR8-1 (natural protein, UniProt Q9SG91 1-72, looked up)
chain: MGKQPVKLKAVVYALSPFQQKIMTGLWKDLPEKIHHKVSENWISATLLVTPVVGTYWYAQYFKEQEKLEHRF
notes: QCR8, isoform 1 (the dominant isoform, fitted to the map), accessory subunit of Arabidopsis thaliana complex III
- binding result (complex I subunit B14.7): binds

B3: complex III subunit QCR6-1 (natural protein, UniProt Q0WWE3 1-69, looked up)
chain: MADDEVVDPKKYLEESCKPKCVKPLLEYQACVKRIQGDDSGHKHCTGQYFDYWQCIDKCVAPKLFAKLK
notes: QCR6, isoform 1 (the dominant isoform, fitted to the map), accessory subunit of Arabidopsis thaliana complex III
- binding result (complex I subunit B14.7): binds

- binding result [3]: binds
- binding result [4]: binds
B4: complex I subunit B22 (natural protein, UniProt Q945M1 1-117, looked up)
chain: MSGVSTAAYFARRAAQKERVRILYRRALKDTLNWAVHRHIFYRDASDLREKFNVNQDVEDVDRIDKLIAHGEAEYNKWRHPDPYIVPWAPGGSKFCRNPTPPAGIEIVYNYGLEDNP
notes: accessory subunit B22 of Arabidopsis thaliana mitochondrial complex I (membrane arm)
